# Reference: IntAct's records for PubMed 26385923
# B1: Mitochondrial antiviral-signaling protein (Homo sapiens), Q7Z434 (parent)
# chain: MPFAEDKTYKYICRNFSNFCNVDVVEILPYLPCLTARDQDRLRATCTLSGNRDTLWHLFNTLQRRPGWVEYFIAALRGCELVDLADEVASVYQSYQPRTSDRPPDPLEPPSLPAERPGPPTPAAAHSIPYNSCREKEPSYPMPVQETQAPESPGENSEQALQTLSPRAIPRNPDGGPLESSSDLAALSPLTSSGHQEQDTELGSTHTAGATSSLTPSRGPVSPSVSFQPLARSTPRASRLPGPTGSVVSTGTSFSSSSPGLASAGAAEGKQGAESDQAEPIICSSGAEAPANSLPSKVPTTLMPVNTVALKVPANPASVSTVPSKLPTSSKPPGAVPSNALTNPAPSKLPINSTRAGMVPSKVPTSMVLTKVSASTVPTDGSSRNEETPAAPTPAGATGGSSAWLDSSSENRGLGSELSKPGVLASQVDSPFSGCFEDLAISASTSLGMGPCHGPEENEYKSEGTFGIHVAENPSIQLLEGNPGPPADPDGGPRPQADRKFQEREVPCHRPSPGALWLQVAVTGVLVVTLLVVLYRRRLH
# partner: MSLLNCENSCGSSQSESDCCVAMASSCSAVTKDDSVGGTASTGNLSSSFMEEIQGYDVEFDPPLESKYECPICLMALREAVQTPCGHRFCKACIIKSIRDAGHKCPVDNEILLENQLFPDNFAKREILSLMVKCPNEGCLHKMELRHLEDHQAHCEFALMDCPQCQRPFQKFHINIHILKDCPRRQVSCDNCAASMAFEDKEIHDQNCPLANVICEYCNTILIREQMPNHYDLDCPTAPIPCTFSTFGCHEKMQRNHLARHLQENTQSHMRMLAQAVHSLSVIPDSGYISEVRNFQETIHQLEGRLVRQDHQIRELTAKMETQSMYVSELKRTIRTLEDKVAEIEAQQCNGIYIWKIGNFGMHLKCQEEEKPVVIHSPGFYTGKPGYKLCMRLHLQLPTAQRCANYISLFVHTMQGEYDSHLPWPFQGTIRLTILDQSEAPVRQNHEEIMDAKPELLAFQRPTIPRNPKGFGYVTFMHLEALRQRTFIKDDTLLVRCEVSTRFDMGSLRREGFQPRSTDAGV
# Variants of: B1
# Details: with traf6_human TRAF6, Q9Y4K3
row,Variant,effect of a mutation on the interaction
1,Y460A,disrupting interaction strength
2,E457A,disrupting interaction strength
3,Y460E,decreasing interaction strength
4,P455D,disrupting interaction strength
